Data published in patent publication US20240287172A1 (SCIRHOM, published 2024).
Substitutions are numbered along the chain they refer to.

B1: antibody 48 (antibody, V domains shown)
VH: QVQLQQSGTELVRPGTSVKVSCKASGYAFTNYLIEWVKQRPGQGLEWIGVINPGSGFTKYNEKFKGKATLTADKSSSTVYMHLSSLTSEDSAVYFCARGLYRAMDYWGQGTSVTVSS
VL: DIQMTQSPASQSASLGESVTITCLASQTIATWLAWYQQKPGKSPQLLIYGATTLADGVPSRFSGGGSGTKFSFKISSLQAEDFVSYYCQQLYSTPYTFGGGTKLEIK
notes: mouse IgG, kappa light chain; also called clone #48; purified antibody 48
B2: antibody 50 (antibody, V domains shown)
VH: B1 VH with T9A, T16A, T30S, V79A, H82Q
VL: B1 VL with A30G, G50A, T52A, T53S, S85N, L91I
notes: mouse IgG, kappa light chain; also called clone #50; purified antibody 50

Legend:
[1] = biological target: T1, hiR2-FL-I477M-T7 (human, UniProt Q6PJF5 1-856); experiment: FACS, MEF-DKO cells, 3 µg/ml
T1 sequence: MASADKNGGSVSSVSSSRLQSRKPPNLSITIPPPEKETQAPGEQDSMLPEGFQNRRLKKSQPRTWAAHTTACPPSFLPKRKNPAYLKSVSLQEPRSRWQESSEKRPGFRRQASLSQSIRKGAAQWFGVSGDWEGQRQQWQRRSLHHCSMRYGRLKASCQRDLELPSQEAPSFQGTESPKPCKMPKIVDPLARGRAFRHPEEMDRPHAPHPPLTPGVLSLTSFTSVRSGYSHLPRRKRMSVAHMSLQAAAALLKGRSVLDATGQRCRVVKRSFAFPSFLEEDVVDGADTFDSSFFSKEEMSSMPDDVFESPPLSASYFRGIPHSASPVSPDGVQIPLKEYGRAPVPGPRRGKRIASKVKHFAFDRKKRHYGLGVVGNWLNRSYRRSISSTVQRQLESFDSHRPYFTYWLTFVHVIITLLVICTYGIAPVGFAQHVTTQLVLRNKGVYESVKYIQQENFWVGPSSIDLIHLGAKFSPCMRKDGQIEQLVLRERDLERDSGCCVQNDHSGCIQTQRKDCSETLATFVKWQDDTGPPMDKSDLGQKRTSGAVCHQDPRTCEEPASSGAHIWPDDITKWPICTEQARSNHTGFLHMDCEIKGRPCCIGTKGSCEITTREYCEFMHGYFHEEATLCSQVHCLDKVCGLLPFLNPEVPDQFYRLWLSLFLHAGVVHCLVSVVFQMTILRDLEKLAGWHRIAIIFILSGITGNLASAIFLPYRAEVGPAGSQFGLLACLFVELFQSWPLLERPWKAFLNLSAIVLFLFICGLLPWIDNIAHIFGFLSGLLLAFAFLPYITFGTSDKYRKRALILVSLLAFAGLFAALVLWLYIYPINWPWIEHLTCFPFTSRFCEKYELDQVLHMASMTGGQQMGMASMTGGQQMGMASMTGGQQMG
Description: (§1) In brief, immortalized MEF-DKO-hiR2-FL-A431S-T7, MEF-DKO-hiR2-FL-V434E-T7, MEF-DKO-hiR2-FL-T436V-T7, MEF-DKO-hiR2-FL-Q437D-T7, MEF-DKO-hiR2-FL-L438S-T7, MEF-DKO-hiR2-FL-S448N-T7, MEF-DKO-hiR2-FL-I452V-T7, MEF-DKO-hiR2-FL-I464E-T7, MEF-DKO-hiR2-FL-D465A-T7, MEF-DKO-hiR2-FL-I477M-T7, MEF-DKO-hiR2-FL-K479Q-T7, MEF-DKO-hiR2-FL-G481P-T7, MEF-DKO-hiR2-FL-I483V-T7, MEF-DKO-hiR2-FL-E484H-T7, MEF-DKO-hiR2-FL-Q485S-T7, MEF-DKO-hiR2-FL-L486F-T7, MEF-DKO-hiR2-FL-V487I-T7, MEF-DKO-hiR2-FL-R489S-T7, MEF-DKO-hiR2-FL-E490A-T7, MEF-DKO-hiR2-FL-D492E-T7, MEF-DKO-hiR2-FL-L493R-T7, MEF-DKO-hiR2-FL-R495K-T7 and MEF-DKO-hiR2-FL-D496H-T7 cells were harvested with 10 mM EDTA in PBS, washed and resuspended in FACS buffer (PBS, 3% FBS, 0.05% sodium azide), and seeded in Nunc U-bottom 96-well plates (Thermo Fisher Scientific, USA) at approximately 1×10⁵ cells per well. To pellet cells and remove supernatants, the plates were centrifuged at 1,500 rpm and 4° C. for 3 minutes. For primary staining, cells were resuspended in 100 μl per well of either FACS buffer alone (controls) or the purified antibodies 3, 5, 16, 22, 34, 42, 43, 44, 48, and 50 of the invention at 3 μg/ml in FACS buffer and incubated on ice for 1 hour. Afterwards, plates were centrifuged at 1,500 rpm and 4° C. for 3 minutes and washed twice with 200 μl per well of FACS buffer. For secondary staining, cells were spun down and resuspended in 100 μl per well of PE-conjugated goat anti-mouse IgG F(ab′)2 detection fragment (Dianova, Germany) diluted 1:100 in FACS buffer. Protected from light, the cell suspensions were incubated on ice for 1 hour. Plates were then centrifuged at 1,500 rpm and 4° C. for 3 minutes and washed three times with 200 μl per well of FACS buffer. Finally, cells were resuspended in 150 μl per well of FACS buffer and analyzed using a BD Accuri™ C6 Plus flow cytometer (Becton Dickinson, Germany).

[2] = biological target: T2, hiR2-FL-I483V-T7 (human, UniProt Q6PJF5 1-856); experiment: FACS, MEF-DKO cells, 3 µg/ml
T2 sequence: T1 sequence with M477I, I483V
Description: as §1

| Binder | loss of binding vs wild type [1] [%] | loss of binding vs wild type [2] [%] |
| --- | --- | --- |
| B1 | ≥ 30 | ≥ 30 |
| B2 | ≥ 30 | ≥ 30 |
